Test results published in the supplement of paper PMC10567573.

B1: JUNB (parent)
chain: FVKALDDLHKMNHVTPPNVSLGAT
B2: KCNG1 (parent)
chain: AVNLSVSTLPSLREEEEQVRAHAP

Variants of: B1
Experiment: protein stability index of a GFP-peptide fusion (GPS, HEK-293T) (PSI 1-6); higher = more stable
Settings: c terminus: a fixed tail appended
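Further: lentivirally expressed fusions sorted by FACS into six bins by GFP to DsRed ratio, PSI derived from sequencing read proportions per bin multiplied by bin number.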

Variant	protein stability index
H9S	2.57
H9T	2.15
H9V	1.79
H9W	4.16
H9Y	1.54
K10A	2.79
K10C	1.64
K10D	2.22
K10E	2.98
K10F	1.6
K10G	1.5
K10H	2.13
K10I	2.35
K10L	1.72
K10M	1.72
K10N	2.07
K10P	2.61
K10Q	1.95
K10R	2.77
K10S	2.11
K10T	2.21
K10V	1.48
K10W	4.58
K10Y	2.63

Variant	protein stability index
M11A	2.29
M11C	2.31
M11D	2.29
M11E	3.21
M11F	2.6
M11G	1.61
M11H	1.94
M11I	2.26
M11K	1.83
M11L	1.7
M11N	2.01
M11P	1.4
M11Q	2.63
M11R	2.28
M11S	2.11
M11T	2.06
M11V	1.7
M11W	2.23
M11Y	1.29
N12A	2.14
N12C	2.34
N12D	1.61
N12E	2.01
N12F	1.74

Variant	protein stability index
N12G	2.49
N12H	2.57
N12I	1.67
N12K	1.55
N12L	3.23
N12M	1.65
N12P	2.08
N12Q	1.58
N12R	1.56
N12S	2.12
N12T	1.8
N12V	1.67
N12Y	3.14
H13A	1.92
H13C	1.67
H13D	1.92
H13E	3.33
H13F	2.17
H13G	1.91
H13I	2.22
H13K	1.74
H13L	2.56
H13M	2.06
H13N	1.54

Variant	protein stability index
H13P	1.75
H13Q	2.08
H13R	2.4
H13S	1.2
H13T	2.75
H13V	1.75
H13W	2.66
H13Y	1.6
V14A	2.24
V14C	2.3
V14D	1.87
V14E	1.93
V14F	1.8
V14G	2.37
V14H	1.78
V14I	1.82
V14K	1.53
V14L	1.88
V14M	1.51
V14N	1.89
V14P	1.46
V14Q	2.26
V14R	1.84
V14S	1.43

Variant	protein stability index
V14T	1.82
V14W	2.7
V14Y	1.19
T15A	2.79
T15C	2.06
T15D	1.9
T15E	1.45
T15F	1.69
T15G	2.04
T15H	2.12
T15I	1.59
T15K	2.09
T15L	2.03
T15M	2.3
T15N	1.84
T15P	2.18
T15Q	2.06
T15R	2.24
T15S	1.92
T15V	1.6
T15W	1.51
T15Y	1.67
P16A	1.94
P16C	2.48

Variant	protein stability index
P16D	1.76
P16E	2.55
P16F	2.55
P16G	1.9
P16H	1.81
P16I	1.58
P16K	1.79
P16L	1.53
P16M	1.68
P16N	1.14
P16Q	2.11
P16R	1.6
P16S	1.78
P16T	2.34
P16V	1.86
P16W	1.92
P16Y	1.64
P17A	1.89
P17C	2.08
P17D	1.97
P17E	1.48
P17F	2.56
P17G	1.56
P17H	1.89

Variant	protein stability index
P17I	1.81
P17K	2.64
P17L	1.37
P17M	2.35
P17N	1.8
P17Q	2.21
P17R	1.44
P17S	1.83
P17T	1.62
P17V	1.71
P17W	3.22
P17Y	3.73
N18A	1.32
N18C	1.69
N18D	1.73
N18E	1.62
N18F	2.41
N18G	1.73
N18H	1.62
N18I	1.4
N18K	1.75
N18L	1.93
N18M	2.5
N18Q	2.49

Variant	protein stability index
N18R	3.67
N18S	2.61
N18T	1.47
N18V	1.63
N18W	2.86
N18Y	1.73
V19A	1.77
V19C	2.11
V19D	1.94
V19E	1.67
V19F	1.43
V19G	1.49
V19H	2.41
V19I	1.82
V19K	1.39
V19L	1.69
V19M	1.82
V19N	1.98
V19P	1.44
V19Q	1.79
V19R	1.9
V19S	1.63
V19T	1.56
V19W	3.57

Variant	protein stability index
V19Y	1.47
S20A	3.1
S20C	1.83
S20D	1.72
S20E	2.16
S20F	1.39
S20G	2.46
S20H	1.81
S20I	1.11
S20K	2.81
S20L	1.56
S20M	1.64
S20N	1.96
S20P	2.12
S20Q	1.7
S20R	2.33
S20T	2.09
S20V	1.77
S20W	3.23
S20Y	3.04
L21A	2.17
L21C	1.38
L21D	2.51
L21E	2.9

Variant	protein stability index
L21F	2.09
L21G	2.54
L21H	1.74
L21I	1.9
L21K	2.44
L21M	2.16
L21N	1.89
L21P	1.96
L21Q	2.36
L21R	2.15
L21S	2.25
L21T	1.78
L21V	1.65
L21W	1.95
L21Y	1.52
G22A	1.85
G22C	2.47
G22D	2.43
G22E	2.12
G22F	2.48
G22H	1.54
G22I	2.41
G22K	1.46
G22L	2.5

Variant	protein stability index
G22M	1.72
G22N	2.28
G22P	2.15
G22Q	2.66
G22R	1.2
G22S	2.16
G22T	1.82
G22V	2.27
G22Y	1.24
A23C	2.16
A23D	2.11
A23E	2.17
A23F	1.41
A23G	1.27
A23H	1.71
A23I	1.77
A23K	2.06
A23L	2.73
A23M	1.85
A23N	2.02
A23P	2.46
A23Q	1.46
A23R	2.39
A23S	2.05

Variant	protein stability index
A23T	1.31
A23V	2
A23W	1.72
A23Y	1.65
T24A	1.51
T24C	1.33
T24D	1.86
T24E	2.52
T24F	2.66
T24G	1.56
T24H	1.83
T24I	1.92
T24K	1.75
T24L	1.66
T24M	1.81
T24N	1.6
T24Q	1.83
T24R	1.33
T24S	2
T24V	2.46
T24W	1.54
T24Y	1.62

Variants of: B2
Experiment: as above
Settings: c terminus: a fixed tail appended

Variant	protein stability index
A1C	5
A1D	5.52
A1E	4.75
A1F	2.57
A1G	4.96
A1H	5.12
A1I	4.48
A1K	5.28
A1L	4.14
A1M	4.61
A1N	5.02
A1P	5.12
A1Q	4.28
A1R	5.31
A1S	4.82
A1T	5.46
A1V	4.39
A1W	3.81
A1Y	2.47
V2A	5.6
V2C	4.98
V2D	5.64
V2E	5.39
V2F	4.83

Variant	protein stability index
V2G	5.46
V2H	5.54
V2I	4.89
V2K	5.63
V2L	5.04
V2M	4.79
V2N	5.59
V2P	5.57
V2Q	5.33
V2R	5.04
V2S	5.41
V2T	5.23
V2W	4.1
V2Y	4.93
N3A	4.75
N3C	4.45
N3D	5.26
N3E	5.73
N3F	3.02
N3G	5.03
N3H	4.72
N3I	3.05
N3K	4.43
N3L	2.41
